Data reported in US20230183305A1, “KERATIN BD-11, PREPARATION METHOD THEREFOR AND PHARMACEUTICAL COMPOSITION AND USE THEREOF” (INSTITUTE OF MATERIA MEDICA, CHINESE ACADEMY OF MEDICAL …, priority 2019, published 2023).

Experiments:
[1] = tested on: PTZ-induced epilepsy in ICR mice; assay: Pentylenetetrazole (PTZ) induced epilepsy in mice; type: in vivo, mouse; design: mortality rate: unit not given here; settings: for Cases of deaths / Grade IV seizure rate / mortality rate / Cases of Grade IV: PTZ 65 mg/kg i.p., 10 mice; for Cases of Grade IV: 15 min observation; for Grade III seizure incubation period / Grade IV seizure incubation period: mean±SEM; for Grade IV seizure incubation period: no Grade IV recorded as maximum 900 s
Method: • Animals: male ICR mice; • Medicines: Pentylenetetrazol (PTZ), Retigabine, Protein BD-11.
Experiment grouping: • Model group; • Retigabine 60 mg/kg group; • Protein BD-11, 50 mg/kg group, 200 mg/kg group;
The drug was administered once in the afternoon the day before modeling, On the day of modeling, PTZ-65 mg/kg (modeling agent) was injected intraperitoneal 1 hour after the test drug was administered intragastrically, and the positive drug can be administered once half an hour before modeling. Continue to observe for 15 minutes after injection of PTZ.
Observation index: ①Seizure situation: the time of seizures from Grade III to […]; ②Death situation
Seizure grade: Refer to Racine grading standard: Grade 0: No response; Grade I: manifested as twitching of facial muscles or the corners of the mouth; Grade II: can nod; Grade III: twitching of one limb; Grade IV: rigidity or body twitching; Grade V: generalized epilepsy (generalized tonic seizures).
Count the cases of seizures and deaths in each group of mice in the experiment; Grade III and IV incubation period. The incubation period of mice that have not attacked to Grade IV is recorded as the maximum of 900 seconds. Chi-square test was used for statistics of the number of cases. Calculate the mean and standard error of the incubation period. Use TTEST to compare the model group with other groups, and P<0.05 is considered as a significant difference.

[2] = tested on: lipopolysaccharide (LPS) induced fever in SD rats; assay: Lipopolysaccharide (LPS) induced fever model in SD rats; type: in vivo, rat; settings: for Body temperature 2 hours after modeling: 2 h after LPS 20 µg/kg i.p.; for Body temperature 2 hours after modeling / Body temperature 4 hours after modeling / Body temperature 6 hours after modeling / Body temperature 8 hours after modeling: n=8; for Body temperature 4 hours after modeling: 4 h after LPS 20 µg/kg i.p.; for Body temperature 6 hours after modeling: 6 h after LPS 20 µg/kg i.p.; for Body temperature 8 hours after modeling: 8 h after LPS 20 µg/kg i.p.
Method: • Animals: 230-260 grams of male SD rats; • Drugs: lipopolysaccharide (LPS, SIGMAL-2880), aspirin (SIGMA A2093), protein BD-11; • Instruments: electronic balance (SARTORIUS BP121S type), electronic clinical thermometer (CITIZEN CT-513W type).
Experiment grouping: • Normal control group; • Model group: lipopolysaccharide fever model; • Positive control group: Aspirin 300 mg/kg group; • Protein BD-11, 10 mg/kg group, 50 mg/kg group. Method: the method of intraperitoneal injection of Lipopolysaccharide to replicate rat fever model.
(§1) Preparation of experimental animals: After the experimental animals adapt to the experimental environment (temperature 22° C.±2° C., relative humidity 50%±2%) for 1 day. Pre-adaptation to measure rectal temperature at 8:00 and 15:00, rats were fasted and water was taken freely 12 h before experiment, and let the animal to empty its feces before measuring the rectal temperature. Apply petroleum jelly to the electronic thermometer probe before each temperature measurement. Insert the rat rectum 2 cm (can be marked at 2 cm to ensure that the depth of each insertion is consistent), and record the body temperature after the reading is stable.
Intraperitoneal injection of lipopolysaccharide to replicate rat fever model: The body temperature of the rats was measured before modeling. Qualified rats with a body temperature of 36.2-37.3° C. were selected and randomly divided into groups with 8 rats in each group. After oral administration of aspirin and different doses of protein BD-11, lipopolysaccharide (20 µg/kg, 2 ml/kg) was injected intraperitoneally immediately, and the normal control group was injected intraperitoneally with an equal volume of normal saline. The body temperatures of the rats were monitored after 2 hours for a total of 8 hours.
(§2) According to the body temperature measured at each time point on the day of the experiment, calculate the mean, standard deviation and standard error of the body temperature of each group of rats. The data of each group was compared with TTEST, and P<0.05 was considered as a significant difference.
Immediately after oral administration of aspirin (300 mg/kg), protein BD-11 (10 mg/kg, 50 mg/kg), intraperitoneal injection of 20 µg/kg lipopolysaccharide was performed to establish a model. The animal body temperature was monitored at 2 hours, 4 hours, 6 hours, and 8 hours after modeling.

[3] = tested on: yeast-induced fever model in SD rats; assay: Yeast-induced fever model in SD rats; type: in vivo, rat; settings: for Body temperature 2 hours after modeling: 2 h after 20% yeast s.c.; for Body temperature 2 hours after modeling / Body temperature 4 hours after modeling / Body temperature 6 hours after modeling / Body temperature 8 hours after modeling: n=8; for Body temperature 4 hours after modeling: 4 h after 20% yeast s.c.; for Body temperature 6 hours after modeling: 6 h after 20% yeast s.c.; for Body temperature 8 hours after modeling: 8 h after 20% yeast s.c.
Method: • Animals: 230-260 grams of male SD rats;; • Drugs: yeast (OXOID LP0021), aspirin (SIGMA A2093), protein BD-11; • Instruments: electronic balance (SARTORIUS BP121S type), electronic clinical thermometer (CITIZEN CT-513W type).
Experiment grouping: • Normal control group; • Model group: yeast fever model; • Positive control group: Aspirin 300 mg/kg group; • Protein BD-11, 10 mg/kg group, 50 mg/kg group.
as §1
Subcutaneous injection of dry yeast to replicate rat fever model: The body temperature of the rats was measured before modeling. Qualified rats with a body temperature of 36.2-37.3° C. were selected and randomly divided into groups with 8 rats in each group. After oral administration of aspirin and different doses of protein BD-11, 20% yeast suspension (10 ml/kg) was injected subcutaneously immediately, and the normal control group was injected intraperitoneally with an equal volume of normal saline. The body temperatures of the rats were monitored after 2 hours for a total of 8 hours.
as §2
Immediately after oral administration of aspirin (300 mg/kg), protein BD-11 (10 mg/kg, 50 mg/kg), subcutaneous injection of 20% yeast was performed to establish a model. The animal body temperature was monitored at 2 hours, 4 hours, 6 hours, and 8 hours after modeling.

[4] = 2, 4, 6 and 8 hours after modeling, dose not given

B1: BD-11: recombinant keratin, amino acid sequence SEQ ID NO:1, expressed in E. coli, band around 59 kD; Example 4 batch tested (protein, listed as Bos taurus)
chain: MSRQSTITFQTSSRRGFSTASATTPATSRSRFSSASVTHSPAGSGGLGRISGFGSRSLYNLGGTKRVSISGCGSNFRSGFGGRASSGFGVSGGFGYGGGIGGGHGGCGFSVCPPGGIQEVTVNQSLLTPLNLQIDPNIQRVRKEEREQIKTLNNKFASFIDKVRFLEQQNKVLETKWSLLQEQGTRTVRQSLEPFFEAYITDLRRQLDSITTERGRLDAELRTMQDVVEDFKVRYEDEINKRTAAENEFVALKKDVDAAYLNKVDLEAKANSLTDEINFLQMLFEAELCQMQTRVSDTSVVLSMDNNRSLDLDSIIAEVKAQYEEIANRSRAEAESWYQTKYEELQVTAGQHGDDLRNTKQEISETNRMIQRLRAEIDNVKKQCASLQTAIADAEQRGELALKDARAKLVDLEEALQKSKQDMARLLREYQELMNIKLALDVEIATYRKLLEGEECRLSGEGVSPVNISVVTSTVSSGYGGGSSIGSGSLGLSGGSGCSFMTSGGHSLGGSSFSNSSSRGLGGSGSSFKFVSTTSSSRKSYKH
[1]; BD-11 50 mg/kg intragastric
  Cases of deaths: 0
  Grade IV seizure rate: 90%
  mortality rate: 0
  Cases of Grade IV: 9
[1]; BD-11 50 mg/kg, PTZ model
  Grade III seizure incubation period: 68 ± 5 s
  Grade IV seizure incubation period: 203 ± 81 s
[1]; BD-11 200 mg/kg dose group, PTZ model
  Incubation period of Grade III epilepsy, comparison with model group: significantly different from the model group
[1]; BD-11 200 mg/kg intragastric
  Cases of deaths: 0
  Grade IV seizure rate: 60%
  mortality rate: 0
  Cases of Grade IV: 6
[1]; BD-11 200 mg/kg, PTZ model
  Grade III seizure incubation period: 94 ± 12 s
  Grade IV seizure incubation period: 428 ± 130 s
[2]; [4]
  Effect on increase in body temperature (summary): significantly inhibit the increase in body temperature
[2]; BD-11 10 mg/kg oral
  Body temperature 2 hours after modeling: 37.2±0.2 °C
  Body temperature 4 hours after modeling: 37.7 °C
  Body temperature 6 hours after modeling: 37.6 °C
  Body temperature 8 hours after modeling: 37.4±0.1 °C
[2]; BD-11 50 mg/kg oral
  Body temperature 2 hours after modeling: 37.3 ± 0.1 °C
  Body temperature 4 hours after modeling: 37.5 ± 0.2 °C
  Body temperature 6 hours after modeling: 37.7 °C
  Body temperature 8 hours after modeling: 37.7±0.2 °C
[2]; BD-11 10, 50 mg/kg oral, 2 hours after modeling
  Effect on body temperature of model rats: tendency to lower the body temperature of model rats 2 hours after modeling, but there is no statistically significant
[3]; [4]
  Effect on increase in body temperature (summary): significantly inhibit the increase in body temperature
[3]; BD-11 10 mg/kg dose group, most time points P<0.05 vs model group
  Effect on the increase in body temperature of model rats: strong effect
[3]; BD-11 10 mg/kg oral
  Body temperature 2 hours after modeling: 36.7±0.1 °C
  Body temperature 4 hours after modeling: 37.0±0.1 °C
  Body temperature 6 hours after modeling: 37.4±0.1 °C
  Body temperature 8 hours after modeling: 37.3 ±0.1 °C
[3]; BD-11 50 mg/kg oral
  Body temperature 2 hours after modeling: 36.9 ± 0.2 °C
  Body temperature 4 hours after modeling: 37.4 ± 0.1 °C
  Body temperature 6 hours after modeling: 37.5 ± 0.1 °C
  Body temperature 8 hours after modeling: 37.4 ±0.1 °C
[3]; different doses of BD-11 (10, 50 mg/kg oral), after modeling
  Effect on the increase in body temperature of model rats: can inhibit the increase in body temperature of model rats to varying degrees
